Laboratory results: publication PMC9295563, “A Reduced F420-Dependent Nitrite Reductase in an Anaerobic Methanotrophic Archaeon” (Journal of Bacteriology, 2022)
Blank lines part the entries; values can stand above or below the molecule they belong to.

Tests used:
ANME2c-FsrII-6D [1] = molecular target: T1, ANME2c-FsrII-6D (uncultured archaeon, UniProt Z9BHN8L6W9); assay: inhibition of F420H2-dependent nitrite reduction, F420H2 oxidation at […] nm; assay type: biochemical, uncultured ANME-2c archaeon; parameters: gene fsr; full-length two-domain protein (Fsr-N 1-341, Fsr-C 356-642); expressed from pDS701 in Methanosarcina acetivorans WWM60; F420-Sepharose purified, no tag mentioned; siroheme, FAD, about four [Fe4-S4] per subunit; conditions: read-out: apparent Ki
T1 sequence (Z9BHN8L6W9 1-642): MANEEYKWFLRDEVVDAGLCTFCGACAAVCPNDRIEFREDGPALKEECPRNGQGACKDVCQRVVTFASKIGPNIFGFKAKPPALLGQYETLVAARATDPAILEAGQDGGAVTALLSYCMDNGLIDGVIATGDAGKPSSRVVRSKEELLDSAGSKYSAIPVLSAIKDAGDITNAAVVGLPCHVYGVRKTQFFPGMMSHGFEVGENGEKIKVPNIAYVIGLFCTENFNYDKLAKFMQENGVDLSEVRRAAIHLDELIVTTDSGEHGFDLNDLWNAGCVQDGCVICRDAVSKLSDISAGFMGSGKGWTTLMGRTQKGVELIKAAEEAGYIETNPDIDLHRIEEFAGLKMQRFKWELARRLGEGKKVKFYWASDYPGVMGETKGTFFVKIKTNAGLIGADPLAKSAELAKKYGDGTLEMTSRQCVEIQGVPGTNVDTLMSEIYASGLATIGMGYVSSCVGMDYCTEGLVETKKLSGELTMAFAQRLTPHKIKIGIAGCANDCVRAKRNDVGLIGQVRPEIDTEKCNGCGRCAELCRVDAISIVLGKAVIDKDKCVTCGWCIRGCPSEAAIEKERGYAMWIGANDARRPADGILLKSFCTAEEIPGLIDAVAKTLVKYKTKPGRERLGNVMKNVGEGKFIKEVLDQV

[2] = test system: CN1C=C[C](c2cc[n+](C)cc2)C=C1; assay: purified protein; assay type: biochemical, uncultured ANME-2c archaeon; conditions: pH 7.0
O=S(O)O = test system: T2, O=S(O)O; assay: purified protein; assay type: biochemical, uncultured ANME-2c archaeon; conditions: 408 μM reduced methyl viologen, 10-500 μM sulfite, with DTT, pH 7 phosphate, anaerobic, kcat in electrons transferred per subunit
T2 construct: full-length two-domain protein (Fsr-N 1-341, Fsr-C 356-642); expressed from pDS701 in Methanosarcina acetivorans WWM60; F420-Sepharose purified, no tag mentioned; siroheme, FAD, about four [Fe4-S4] per subunit

O=NO = assay: purified protein; conditions: 40 μM F420H2, 2-100 μM nitrite, 0.5 mM DTT, pH 7 phosphate, anaerobic, kcat in electrons transferred per subunit
ANME2c-FsrII-6D [3] = molecular target: T1, ANME2c-FsrII-6D; assay: F420H2 oxidation at […] nm; parameters: gene fsr; conditions: read-out: Km (μM) for the varied substrate; 500 μM nitrite, 1-80 μM F420H2, 0.5 mM DTT, pH 7 phosphate, anaerobic; kcat in electrons transferred per subunit

Ki (ANME2c-FsrII-6D [1]): 130 ± 86 µM
Molecule: O=S(O)O [sulfite]

Molecule: ANME2c-FsrII-6D (uncultured archaeon)
Km [2]: 137 ± 26 µM
kcat/Km [2]: 0.5 ± 0.1 (MV^·+)
Km (O=S(O)O): 129 ± 20 µM
kcat (O=S(O)O): 1.07 ± 0.0667 s⁻¹
kcat/Km (O=S(O)O): 0.5 ± 0.1 (HSO3^−)
Km (O=NO): 5 ± 1 µM
kcat (O=NO): 0.3 ± 0.0167 s⁻¹
kcat/Km (O=NO): 4 ± 1 (NO2^−)

Km (ANME2c-FsrII-6D [3]): 14 ± 2 µM
Molecule: F420H2
